Where two headings read alike, the source gives them in different places.
T1: mouse LAIR-1 (form in the assay not stated) (mouse, UniProt Q8BG84 22-144, limits assumed)
T1 sequence: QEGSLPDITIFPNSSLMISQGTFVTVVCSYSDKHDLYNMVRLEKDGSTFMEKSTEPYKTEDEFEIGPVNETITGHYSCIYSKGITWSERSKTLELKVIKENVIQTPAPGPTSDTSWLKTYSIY

T2: human LAIR-2 (form in the assay not stated) (human, UniProt Q6ISS4 22-152)
T2 sequence: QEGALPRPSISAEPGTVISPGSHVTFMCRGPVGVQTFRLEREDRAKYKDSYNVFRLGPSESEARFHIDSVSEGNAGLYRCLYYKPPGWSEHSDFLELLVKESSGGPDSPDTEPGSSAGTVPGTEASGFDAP

T3: cyno LAIR-1-ECD (cynomolgus monkey)
T3 construct: Recombinant, expressed in mammalian cells; also called extracellular region of cyno LAIR-1
T3 chain: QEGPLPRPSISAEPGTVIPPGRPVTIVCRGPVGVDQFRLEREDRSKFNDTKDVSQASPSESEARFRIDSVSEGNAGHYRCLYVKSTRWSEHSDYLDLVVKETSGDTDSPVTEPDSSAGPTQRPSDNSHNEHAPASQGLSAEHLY

T4: human LAIR-1-ECD (human, UniProt Q6GTX8 22-165)
T4 construct: Recombinant, expressed in mammalian cells; also called extracellular region of human LAIR-1
T4 chain: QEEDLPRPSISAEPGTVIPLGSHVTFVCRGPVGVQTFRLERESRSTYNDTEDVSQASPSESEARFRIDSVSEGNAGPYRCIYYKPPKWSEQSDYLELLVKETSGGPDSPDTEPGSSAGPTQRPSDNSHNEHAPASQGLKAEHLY

T5: human LAIR-1-Fc (human, UniProt Q6GTX8 22-165)
T5 construct: also called biotinylated human LAIR-1-Fc; not shown: a Fc region
T5 chain: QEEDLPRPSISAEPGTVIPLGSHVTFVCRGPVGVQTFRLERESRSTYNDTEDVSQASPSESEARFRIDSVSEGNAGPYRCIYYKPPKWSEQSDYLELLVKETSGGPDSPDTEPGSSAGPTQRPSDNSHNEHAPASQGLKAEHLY


What was measured:
[1] = target: T1, mouse LAIR-1 (form in the assay not …); experiment: not described
[2] = target: T2, human LAIR-2 (form in the assay not …); experiment: ELISA and FACS screening
[3] = target: T3, cyno LAIR-1-ECD; experiment: SPR (Biacore); antibody captured by anti-Fc; LAIR-1-ECD injected;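 also: Anti-Fc immobilized on a CM5 chip, LAIR-1-ECD (human or cynomolgus) injected at 3.3-10 nM and 25 °C, kinetics fitted by simultaneous global fit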
[4] = target: T4, human LAIR-1-ECD; experiment: as above
[5] = target: T6, cyno LAIR-1-CD3ζ chimeric receptor on NFAT-GFP reporter cells (cynomolgus monkey; human); experiment: cell-based or functional assay
[6] = target: T7, human LAIR-1-CD3ζ chimeric receptor on NFAT-GFP reporter cells (human, UniProt P20963 31-164, limits assumed); experiment: cell-based or functional assay
[7] = target: T7, human LAIR-1-CD3ζ chimeric receptor on …; experiment: cell-based or functional assay; remark: listed apart in the source
Target sequence in this assay (P20963 other isoform, or with tags, fused parts or gaps mutant limits assumed): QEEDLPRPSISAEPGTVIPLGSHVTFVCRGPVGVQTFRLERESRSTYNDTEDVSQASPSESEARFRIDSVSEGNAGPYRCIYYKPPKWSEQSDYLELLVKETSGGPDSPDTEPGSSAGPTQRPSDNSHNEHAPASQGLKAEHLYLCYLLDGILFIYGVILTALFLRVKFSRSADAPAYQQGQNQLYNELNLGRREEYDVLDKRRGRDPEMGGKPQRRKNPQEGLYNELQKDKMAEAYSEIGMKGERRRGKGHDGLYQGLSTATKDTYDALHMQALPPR

[8] = target: T6, cyno LAIR-1-CD3ζ chimeric receptor on …; experiment: cell-based or functional assay; remark: listed apart in the source
Target sequence in this assay (P20963 other isoform, or with tags, fused parts or gaps mutant limits assumed): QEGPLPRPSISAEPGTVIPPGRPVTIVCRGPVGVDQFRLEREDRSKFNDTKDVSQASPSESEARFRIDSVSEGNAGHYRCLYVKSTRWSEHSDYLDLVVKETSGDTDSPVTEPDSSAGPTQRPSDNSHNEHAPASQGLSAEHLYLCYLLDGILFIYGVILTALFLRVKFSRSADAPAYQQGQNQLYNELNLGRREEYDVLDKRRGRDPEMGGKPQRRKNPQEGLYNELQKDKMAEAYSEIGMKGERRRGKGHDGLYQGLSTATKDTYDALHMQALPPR

[9] = target: T7, human LAIR-1-CD3ζ chimeric receptor on …; experiment: cell-based or functional assay; remark: listed apart in the source
[10] = target: T5, human LAIR-1-Fc; experiment: ELISA blocking: plate coated with 5 µg/mL human collagen type 1, antibody titrated, 1 µg/mL biotinylated human LAIR-1-Fc, streptavidin-HRP, OD650
[11] = target: T7, human LAIR-1-CD3ζ chimeric receptor on …; experiment: cell-based or functional assay; remark: listed apart in the source

binding result [1] | binding result [2] | Kd [3] [nM] | koff [3] [s⁻¹] | kon [3] [M⁻¹ s⁻¹] | Kd [4] [nM] | koff [4] [s⁻¹] | kon [4] [M⁻¹ s⁻¹] | IC50 (read off the curve): % GFP+ human LAIR-1 reporter cells on coated MARCO-his [7] [nM] | IC50 (read off the curve): % GFP+ human LAIR-1 reporter cells on coated collagen 1 [7] [nM] | IC50 (read off the curve): % GFP+ human LAIR-1 reporter cells on coated collagen 4 [7] [nM] | Binder | also measured
no binding | no binding | 7.3 | 0.00078 | 110000 | 0.27 | 4.5e-05 | 170000 | – | – | – | anti-LAIR-1 antibody 57D12 (antibody, V domains shown, Monoclonal antibody from immunized mice (hybridoma)) VH: QVQLQQSGAELARPGASVNLSCRASGYSFTSFGISWVKQRTGQGLEWIGEIYPRSDNTFYNEKFKGKATLTADKSSSTAYMELRSLTSEDSAVYFCARHFGSSSFDYWGQGTTLTVSS VL: ENVLTQSPPIMAASLGQKVTMTCSASSSVSSIYFHWYQQKSGTSPKPLIHRASNLASGVPARFSGSGSGTSYSLTISSVEAEDDATYYCQQWSGYPLTFGGGTKLEIK | –
no binding | no binding | 18 | 0.0057 | 320000 | 0.92 | 0.00055 | 590000 | – | – | – | anti-LAIR-1 antibody 47A1 (antibody, V domains shown, Monoclonal antibody from immunized mice (hybridoma)) VH: EVQLVESGGGLVQPKGSLKLSCAASGFTFNTYAIHWVRQAPGKGLEWVARIRSKSTNYATYYADSVKDRFTISRDDSQSMVFLQMNNLKTEDTAMYYCVRENWYYYALDYWGQGTSVTVSS VL: DIQMTQSPASLSASVGETVTITCRASGNIHNYLTWYQQKQGKSPQVLVYNAKTLEDGVPSRFSGSESGTQYSLKINSLQPEDFGSYYCQHFWSTPFTFGSGTKLEIK | –
no binding | no binding | 9.6 | 0.00077 | 80000 | 0.46 | 4.9e-05 | 110000 | – | – | – | anti-LAIR-1 antibody 61H4 (antibody, V domains shown, Monoclonal antibody from immunized mice (hybridoma)) VH: EVQLQQSGPEVLKPGASVKISCKASGYTFTDYYYMNWVKQSHGKSLEWIGYIYPNNGATSYNQKFKGKATLTVDKSSSTAYMELRSLTSEDSAVYYCARDGYSSNYYTMDYWGQGTSVTVSS VL: DVQMIQSPSSLSASLGDIVTMTCQASQGTSINLNWFQQKPGKAPKLLIYGASNLEDGVPSRFSGSRYGTDFTLTISSLEDEDMATYFCLQHTYLPYTFGGGTKLEIK | –
no binding | no binding | 21 | 0.0039 | 190000 | 0.4 | 0.00043 | 1.1e+06 | – | – | – | anti-LAIR-1 antibody 108D10 (antibody, V domains shown, Monoclonal antibody from immunized mice (hybridoma)) VH: EVQLVETGGGLVQPKGSLKLSCAASGFTFNINAMNWVRQAPGKGLEWVARIRTKNNNYATYYADSVKDRFTISRDDSESMLYLQMNNLKTEDTAMYYCVRDRYGGAMAYWGQGTSVTVSS VL: DIQMTQSSSSFSVSLGDRVTITCKASEDIYNRLAWYQQKPGNVPRLLISSATSLETGVPSRFSGSGSGKDYTLSLTSLQSEDVATYYCQQYWTIPYTFGGGTKLEIK | –

Further lines, the binder ahead of its results:

Binder | binding result [1] | binding result [2] | Kd [3] [nM] | koff [3] [s⁻¹] | kon [3] [M⁻¹ s⁻¹] | Kd [4] [nM] | koff [4] [s⁻¹] | kon [4] [M⁻¹ s⁻¹] | IC50 (read off the curve): % GFP+ human LAIR-1 reporter cells on coated MARCO-his [7] [nM] | IC50 (read off the curve): % GFP+ human LAIR-1 reporter cells on coated collagen 1 [7] [nM] | IC50 (read off the curve): % GFP+ human LAIR-1 reporter cells on coated collagen 4 [7] [nM] | also measured
anti-LAIR-1 antibody 62G10 (antibody, V domains shown, Monoclonal antibody from immunized mice (hybridoma)) VH: EVQLVETGGGLVQPKGSLKLSCATSGFTFNINAMNWVRQAPGKGLEWVARIRTKNNNFATYYADSVKDRFTISRDDSQSMLYLQMNNLKTEDTAMYYCVRGPYFDYWGQGTTLTVSS VL: DIQMTQSPASQSASLGESVTITCLASQTIGTWLAWYQQKPGKSPQLLIYAATSLADGVPSRFSGSGSGTKFSFKISNLQAEDFVTYYCQQLYSTPYTFGGGTKLEIK | no binding | no binding | 5.1 | 0.001 | 200000 | 0.32 | 0.00018 | 550000 | – | – | – | –
anti-LAIR-1 antibody 47H1 (antibody, V domains shown, Monoclonal antibody from immunized mice (hybridoma)) VH: EVQLVETGGGLVQPKGSLKLSCAASGFTFNINAMNWVRQAPGKGLEWVARIRTKNNNYATFYADSVKDRFTISRDDSQSMLYLQMNNLKTDDTAMYYCVRDRAGFFAYWGQGTPVTVSA VL: DIQMTQSPASQSASLGESVTITCLASQTIGTWLGWYRQKPGKSPQLLIYAATSLADGVPSRFSGSGSGTKFSFKISSLQAEDFVIYYCQQLYSTPLTFGSGTKLEIK | no binding | no binding | 2.5 | 0.00044 | 180000 | 0.087 | 0.0001 | 1.2e+06 | – | – | – | –
anti-LAIR-1 antibody ch57D12 (antibody, V domains shown, The prefix 'ch' is not defined) VH: QVQLQQSGAELARPGASVNLSCRASGYSFTSFGISWVKQRTGQGLEWIGEIYPRSDNTFYNEKFKGKATLTADKSSSTAYMELRSLTSEDSAVYFCARHFGSSSFDYWGQGTTLTVSS VL: ENVLTQSPPIMAASLGQKVTMTCSASSSVSSIYFHWYQQKSGTSPKPLIHRASNLASGVPARFSGSGSGTSYSLTISSVEAEDDATYYCQQWSGYPLTFGGGTKLEIK | – | – | – | – | – | – | – | – | ~0.2 | ~0.7 | ~0.4 | IC50 (read off the curve): % GFP+ cyno LAIR-1 reporter cells on polymerized collagen matrix [5]: ~1 nM; IC50 (read off the curve): % GFP+ human LAIR-1 reporter cells on polymerized collagen matrix [6]: ~0.3 nM; IC50 (read off the curve): % GFP+ cyno LAIR-1 reporter cells on coated MARCO-his [8]: ~1 nM; IC50 (read off the curve): % GFP+ cyno LAIR-1 reporter cells on coated collagen 1 [8]: ~2 nM; IC50 (read off the curve): % GFP+ cyno LAIR-1 reporter cells on coated collagen 4 [8]: ~0.8 nM; IC50 (read off the curve): % GFP+ human LAIR-1 reporter cells on coated MARCO-his [9]: ~0.3 nM; IC50 (read off the curve): % GFP+ human LAIR-1 reporter cells on coated collagen 1 [9]: ~0.3 nM; IC50 (read off the curve): % GFP+ human LAIR-1 reporter cells on coated collagen 4 [9]: ~0.2 nM; IC50 (read off the curve) [10]: ~5 nM
anti-LAIR-1 antibody ch47A1 (antibody, V domains shown) VH: EVQLVESGGGLVQPKGSLKLSCAASGFTFNTYAIHWVRQAPGKGLEWVARIRSKSTNYATYYADSVKDRFTISRDDSQSMVFLQMNNLKTEDTAMYYCVRENWYYYALDYWGQGTSVTVSS VL: DIQMTQSPASLSASVGETVTITCRASGNIHNYLTWYQQKQGKSPQVLVYNAKTLEDGVPSRFSGSESGTQYSLKINSLQPEDFGSYYCQHFWSTPFTFGSGTKLEIK | – | – | – | – | – | – | – | – | ~0.04 | ~0.1 | ~0.08 | IC50 (read off the curve): % GFP+ human LAIR-1 reporter cells on coated C1 complex [11]: ~0.02 nM; IC50 (read off the curve): % GFP+ human LAIR-1 reporter cells on coated COLEC12 [11]: ~0.1 nM; IC50 (read off the curve): % GFP+ human LAIR-1 reporter cells on coated MARCO-his [11]: ~0.06 nM; IC50 (read off the curve): % GFP+ human LAIR-1 reporter cells on coated MBL [11]: ~0.2 nM; IC50 (read off the curve): % GFP+ human LAIR-1 reporter cells on coated SP-D [11]: ~0.05 nM; IC50 (read off the curve): % GFP+ human LAIR-1 reporter cells on coated collagen 1 [11]: ~0.05 nM; IC50 (read off the curve): % GFP+ human LAIR-1 reporter cells on coated collagen 4 [11]: ~0.04 nM
anti-LAIR-1 antibody ch61H4 (antibody, V domains shown) VH: EVQLQQSGPEVLKPGASVKISCKASGYTFTDYYYMNWVKQSHGKSLEWIGYIYPNNGATSYNQKFKGKATLTVDKSSSTAYMELRSLTSEDSAVYYCARDGYSSNYYTMDYWGQGTSVTVSS VL: DVQMIQSPSSLSASLGDIVTMTCQASQGTSINLNWFQQKPGKAPKLLIYGASNLEDGVPSRFSGSRYGTDFTLTISSLEDEDMATYFCLQHTYLPYTFGGGTKLEIK | – | – | – | – | – | – | – | – | ~0.8 | ~2 | ~1 | –
anti-LAIR-1 antibody ch108D10 (antibody, V domains shown) VH: EVQLVETGGGLVQPKGSLKLSCAASGFTFNINAMNWVRQAPGKGLEWVARIRTKNNNYATYYADSVKDRFTISRDDSESMLYLQMNNLKTEDTAMYYCVRDRYGGAMAYWGQGTSVTVSS VL: DIQMTQSSSSFSVSLGDRVTITCKASEDIYNRLAWYQQKPGNVPRLLISSATSLETGVPSRFSGSGSGKDYTLSLTSLQSEDVATYYCQQYWTIPYTFGGGTKLEIK | – | – | – | – | – | – | – | – | ~0.01 | ~0.05 | ~0.04 | IC50 (read off the curve): % GFP+ human LAIR-1 reporter cells on coated C1 complex [11]: ~0.01 nM; IC50 (read off the curve): % GFP+ human LAIR-1 reporter cells on coated COLEC12 [11]: ~0.03 nM; IC50 (read off the curve): % GFP+ human LAIR-1 reporter cells on coated MARCO-his [11]: ~0.03 nM; IC50 (read off the curve): % GFP+ human LAIR-1 reporter cells on coated MBL [11]: ~0.04 nM; IC50 (read off the curve): % GFP+ human LAIR-1 reporter cells on coated SP-D [11]: ~0.02 nM; IC50 (read off the curve): % GFP+ human LAIR-1 reporter cells on coated collagen 1 [11]: ~0.03 nM; IC50 (read off the curve): % GFP+ human LAIR-1 reporter cells on coated collagen 4 [11]: ~0.02 nM

Reference: patent US20220041711A1 (NGM BIOPHARMACEUTICALS, published 2022)
